The source of these data is patent US20140038267A1 (ALLELE BIOTECHNOLOGY AND PHARMACEUTICALS, published 2014).

The series deals with the molecule itself. The series is described as follows: oligomeric state by size exclusion chromatography (self-association). The text has this: FIG. 1. Size exclusion chromatography of LanYFP (tetramer), dLanYFP (dimer), and mNeonGreen (monomer). The exemplary proteins were detected with 480 nm excitation and 530 nm emission, compared to mCherry (monomer) detected with 540 nm excitation and 620 nm emission. Each exemplary fluorescent protein was run simultaneously with mCherry as a size standard with detection at both wavelengths; mCherry consistently eluted with the same peak shape and retention time. Curves are normalized to peak fluorescence.
Purified and dialyzed fluorescent protein samples were diluted into 50 mM Tris-HCl pH 7.5, 100 mM NaCl and filtered through 0.2 μm filters immediately prior to injection into a Shimadzu Nexera UHPLC equipped with a Waters BEH200 1.7 μm 4.6×150 mm size exclusion column and 4.6×30 mm guard column. Samples were run in the same buffer at a flow rate of 0.3 ml per minute for a total run time of 20 minutes. Fluorescence of the eluted protein was detected with an RF-20Axs fluorescence detector (Shimadzu) with 480 nm and 540 nm excitation and 530 nm and 620 nm emission wavelengths. Each LanYFP or variant sample was co-injected with mCherry, which had been purified under identical conditions and which served as a monomeric size standard.

B1: monomeric NeonGreen (mNeonGreen) (other)
chain: MVSKGEEDNMASLPATHELHIFGSINGVDFDMVGQGTGNPNDGYEELNLKSTKGDLQFSPWILVPHIGYGFHQYLPYPDGMSPFQAAMVDGSGYQVHRTMQFEDGASLTVNYRYTYEGSHIKGEAQVKGTGFPADGPVMTNSLTAADWCRSKKTYPNDKTIISTFKWSYTTGNGKRYRSTARTTYTFAKPMAANYLKNQPMYVFRKTELKHSKTELNFKEWQKAFTDVMGMDELYK
notes: not shown: N-terminal 6xHis tag and linker encoded by vector pNCS
For B1, the binding result is reported as “no binding”.
